# Laboratory results: patent publication US12377130B2, “Pharmaceutical composition comprising CCN5 as active ingredient, for preventing or treating retinal diseases” (OLIVES BIOTHERAPEUTICS INC., priority 2018, dated 2025)
# B1: TGF-β: Recombinant TGF-β2 (PeproTech), trigger for fibrotic deformation of RPE cells (protein, UniProt P61812 303-414, looked up)
# Transforming growth factor …: ALDAAYCFRNVQDNCCLRPLYIDFKRDLGWKWIHEPKGYNANFCAGACPYLWSSDTQHSRVLSLYNTINPEASASPCCVSQDLEPLTILYYIGKTPKIEQLSNMIVKSCKCS
# B2: CCN5 protein: purified human-derived CCN5 protein, extracellular matrix-related protein of the CCN family, also called WISP-2 (protein)
# chain: QLCPTPCTCPWPPPRCPLGVPLVLDGCGCCRVCARRLGEPCDQLHVCDASQGLVCQPGAGPGGRGALCLLAEDDSSCEVNGRLYREGETFQPHCSIRCRCEDGGFTCVPLCSEDVRLPSWDCPHPRRVEVLGKCCPEWVCGQGGGLGTQPLPAQGPQFSGLVSSLPPGVPCPEWSTAWGPCSTTCGLGMATRVSNQNRFCRLETQRRLCLSRPCPPSRGRSPQNSAF
# modifications: CCN5(except signal peptide, human)
# How the values were obtained:
# Assay type in all cases: cell-based, human
# ARPE-19 cells [1] = experiment: Anti-VEGF drug-induced fibrotic deformation of ARPE-19 cells, simultaneous treatment with CCN5 protein; conditions: for expression of CCN5 on treatment with anti-VEGF drug / expression of CCN2 on treatment with anti-VEGF drug: bevacizumab 0.25 mg/ml, ranibizumab 0.125 mg/ml, aflibercept 0.5 mg/ml
# ARPE-19 cells [2] = experiment: Bevacizumab-induced fibrotic deformation of ARPE-19 cells and prevention by AdCCN5; conditions: bevacizumab 0.25 mg/ml
# Description: Recombinant TGF-β2 was purchased from PeproTech Korea (Korea). ARPE-19 cells were treated with the recombinant TGF-β2 at 10 ng/ml. Recombinant EGF and FGF-2 were purchased from Invitrogen (USA). ARPE-19 cells were treated with 1 mM of EGTA, 10 ng/ml of EGF, and 20 ng/ml of FGF-2.
# Use of an anti-VEGF drug that inhibits neovascularization is a widely used method for treating wet age-related macular degeneration. However, this method has a side effect of causing morphological and functional changes in RPE cells. […] The specific experimental process is shown in Example 2, and this experimental process is schematically illustrated in FIG. 11a. The experimental results are illustrated in FIGS. 11b to 11d.
# ARPE-19 cells [3] = experiment: Prevention of TGF-β-induced fibrotic deformation of ARPE-19 cells (microscopy, Western blotting, qPCR, immunofluorescence); conditions: FIG. 3
# Description: A retinal pigment epithelial cell line (ARPE-19; ATCC, USA) was cultured in a 5% CO2 incubator at 37° C. using Dulbecco's modified Eagle's medium and Ham's F12 Nutrient Mixture medium (DMEM/F12; Welgene, Korea), containing 1% antibiotics (Gibco, USA) and 10% fetal bovine serum (FBS; HyClone, USA). The medium was replaced with fresh medium every other day. When the cells were cultured to a certain extent in a culture plate, these cells were subcultured using 0.25% trypsin/0.02% EDTA (Gibco, USA). […]
# Cells that had been grown by being seeded in a 12-well culture plate, each well containing a coverslip, were fixed with 4% formaldehyde and treated with 0.2% Triton X-100 for 10 minutes. […] Observation was performed under a fluorescence microscope.
# RNA was extracted using TRIZOL™ (Invitrogen, USA) reagent. cDNA was synthesized using a reverse transcription kit (Promega, USA), and real-time polymerase chain reaction was performed using SYBR® green (TAKARA, Japan). The level of RNA was analyzed by analyzing the amplification reaction curve, and this analysis was performed in triplicate or quadruplicate. The relative expression level of genes was quantified by normalization to 18s rRNA. […]
# ARPE-19 cells [4] = experiment: Restoration of already formed TGF-β-induced fibrotic deformation of ARPE-19 cells; conditions: then agent (restoration); for expression of mesenchymal (α-SMA, vimentin, fibronectin) and epithelial (ZO-1, occludin) marker proteins (Western blotting): TGF-β 2 days, FIGS. 6c, 8b, 12b, 13b
# Description: The cultured cells were divided into the following two groups and subjected to drug treatment: one group in which induction of differentiation of retinal pigment epithelial cells into mesenchymal cells was suppressed; and the other group in which retinal pigment epithelial cells that had been induced to differentiate into mesenchymal cells were caused to return to normal retinal pigment epithelial cells. The ARPE-19 cells were grown in serum-free medium for 24 hours. Then, the cells were treated with AdCCN5 at 50 multiplicity of infection (MOI) followed by 10 ng/ml of TGF-β2 (PeproTech Korea, Korea), or treated with TGF-β2 followed by AdCCN5.
# For in vitro experiments, the cultured ARPE-19 cells were washed with phosphate buffered saline (PBS), and suspended with a mixed solution of cold RIPA buffer (1% NP-40, 50 mM Tris-HCl [pH 7.4], 150 mM NaCl, and 10 mM NaF) and a protease inhibitor cocktail (Roche, Germany). The cell suspension was subjected to treatment with an ultrasonic generator for 5 minutes at an amplitude of 5% with a cycle of 2 seconds on/1 second off.
# Cells that had been grown by being seeded in a 12-well culture plate, each well containing a coverslip, were fixed with 4% formaldehyde and treated with 0.2% Triton X-100 for 10 minutes. The cells were blocked with a diluted solution of 5% bovine serum albumin in PBS, and incubated with anti-ZO-1 and anti-α-SMA antibodies overnight at 4° C. For secondary antibodies, the cells were incubated for 1 hour at room temperature with FITC- or Alexa Fluor 594-conjugated secondary antibodies, TEXAS RED®-conjugated phalloidin (Invitrogen, USA) for f-actin staining, and Hoechst 33342 (Invitrogen, USA) for nuclear staining. The results were observed using an epifluorescence microscope (Zeiss, Germany). For retinal flat-mount experiments, the eyes were enucleated from the mice, and each eye was fixed in 4% formaldehyde for 24 hours. […] Observation was performed under a fluorescence microscope. […]
# ARPE-19 cells [5] = experiment: Induction of fibrotic deformation of ARPE-19 cells by TGF-β
# Description: The mature ARPE-19 cells form a cobblestone-like monolayer and express marker proteins specific for epithelial cells. The cultured ARPE-19 cells were treated with TGF-β at 5 ng/ml or 10 ng/ml for 2 days (FIG. 1a). The results are illustrated in FIGS. 1b to 1d.
# [6] = TGF-β 5 or 10 ng/ml, 2 days, FIG. 1c
molecule,measurement,setting,value
bevacizumab: anti-VEGF monoclonal antibody drug sold under the brand name Avastin,expression of CCN5 on treatment with anti-VEGF drug,ARPE-19 cells [1]; FIG. 14b,decreased expression of CCN5
same,morphology of ARPE-19 cells on treatment with bevacizumab,ARPE-19 cells [2]; FIG. 11b,the morphology of the cells changed
same,expression of CCN5 on treatment with bevacizumab (Western blotting),ARPE-19 cells [2]; FIG. 11c,the expression of CCN5 is decreased by bevacizumab
aflibercept: anti-VEGF drug sold under the brand name EYLEA,expression of CCN2 on treatment with anti-VEGF drug,ARPE-19 cells [1]; FIG. 14b,increased expression of CCN2
same,expression of CCN5 on treatment with anti-VEGF drug,ARPE-19 cells [1]; FIG. 14b,decreased expression of CCN5
"Cc1cccc(-c2nn(C(=S)Nc3ccccc3)cc2-c2ccnc3ccccc23)n1 [A83-01, reference compound]","TGF-β-induced fibrotic deformation (Western blotting), CCN5 compared with A83-01",ARPE-19 cells [3],inhibited TGF-β-induced fibrotic deformation of ARPE-19 cells
same,"expression of mesenchymal (α-SMA, vimentin, fibronectin) and epithelial (ZO-1, occludin) marker proteins (Western blotting)",ARPE-19 cells [4],"failed to normalize abnormal changes in expression of mesenchymal marker proteins (α-SMA, vimentin, and fibronectin) and epithelial marker proteins (ZO-1 and occludin)"
ranibizumab: anti-VEGF monoclonal antibody fragment (Fab) sold under the brand name LUCENTIS,expression of CCN2 on treatment with anti-VEGF drug,ARPE-19 cells [1]; FIG. 14b,increased expression of CCN2
same,expression of CCN5 on treatment with anti-VEGF drug,ARPE-19 cells [1]; FIG. 14b,decreased expression of CCN5
B1,"α-SMA, f-actin and tight junction after treatment with TGF-β (immunofluorescence staining)",ARPE-19 cells [5]; FIG. 1d,the expression of α-SMA and f-actin is increased and the formation of tight junction is inhibited
same,morphology of ARPE-19 cells after treatment with TGF-β,"ARPE-19 cells [5]; TGF-β 5 or 10 ng/ml, 2 days, FIG. 1b",acquired a fibroblastic morphology
same,expression level of CCN5 protein after treatment with TGF-β,ARPE-19 cells [5]; [6],significantly decreased the expression level of human-derived CCN5 protein
same,expression of mesenchymal and epithelial marker proteins after treatment with TGF-β,ARPE-19 cells [5]; [6],"the expression of the mesenchymal marker proteins, α-SMA, vimentin, fibronectin, and type I collagen, was increased, whereas the expression of the epithelial marker proteins, ZO-1 and occludin, was significantly decreased"
B2,"TGF-β-induced fibrotic deformation (Western blotting), CCN5 compared with A83-01",ARPE-19 cells [3],inhibited TGF-β-induced fibrotic deformation of ARPE-19 cells to the same level as A83-01
same,"expression of mesenchymal (α-SMA, vimentin, fibronectin) and epithelial (ZO-1, occludin) marker proteins (Western blotting)",ARPE-19 cells [4],"inhibited increased expression of mesenchymal marker proteins (α-SMA, vimentin, and fibronectin) and restored decreased expression of epithelial marker proteins (ZO-1 and occludin) to a normal level"
same,tight junction (immunofluorescence staining),"ARPE-19 cells [4]; TGF-β, FIGS. 6d, 12c, 13c","restore the tight junction, disrupted by TGF-β, to normal"
same,expression of mesenchymal and epithelial marker proteins (Western blotting),ARPE-19 cells [1]; simultaneous treatment with anti-VEGF drugs,"inhibited increased expression of mesenchymal marker proteins (α-SMA, vimentin, and fibronectin) and decreased expression of epithelial marker proteins (ZO-1 and occludin)"
same,"anti-VEGF drug-induced decrease of CCN5 and increase of CCN2 expression, effect of CCN5 protein","ARPE-19 cells [1]; simultaneous treatment with anti-VEGF drugs, FIG. 14b",this phenomenon was inhibited by CCN5 protein
same,"tight junction, expression of α-SMA and formation of f-actin (immunofluorescence staining)","ARPE-19 cells [1]; simultaneous treatment with anti-VEGF drugs, FIG. 14c","inhibited disruption of tight junction, increased expression of α-SMA, and formation of f-actin"
